From patent US20070178531A1 (BIOCHECK, published 2007)

Assays:
Mouse Id1: Histidine [1] = molecular target: T1, Mouse Id1: Histidine (mouse, UniProt P20067-2 1-148, limits assumed); assay: ELISA, Ab 0.500 µg/ml
T1 construct: Fusion protein made in E. coli from vector pGW07; also called m-Id1-His; not shown: His tag
T1 sequence (looked up): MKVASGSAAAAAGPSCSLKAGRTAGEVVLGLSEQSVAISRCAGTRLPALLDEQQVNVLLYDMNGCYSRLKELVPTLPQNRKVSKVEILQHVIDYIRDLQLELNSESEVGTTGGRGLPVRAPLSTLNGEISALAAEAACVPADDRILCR
Description: The rabbit monoclonal anti-human Id3 (clone #3-3) and the rabbit monoclonal anti-mouse/human Id3 (clones #6-1, 16-1, 17-3, and 42-1) produced in Example 6 were tested reactivity against the following antigens: mouse Id1:His, human Id1:His, mouse Id2:His, human Id2:His, mouse Id3:His, human Id3:His, mouse Id4:His, human Id4:His and GST.
1. Microtiter wells (prepared in accordance with Example 6) were coated (0.1 μg/well) with mouse Id1:His, human Id1:His, human Id2:His, human Id3:His, and 1.0 μg/well with GST. [0155] 2. Antibody Diluent: 0.25% (w/v) BSA in 0.015M KPO₄ Buffer, 0.85% (w/v) NaCl, 0.1% (w/v) NaN₃, pH=7.40 [0156] 3. Rabbit monoclonal anti-human Id3 (clone #3-3) prepared in Example 7 was diluted to […] with the antibody diluent. […] 4. Rabbit monoclonal anti-mouse/human Id3 (clones #6-1, 16-1, 17-3, 42-1) prepared in Example 7 was diluted to 0.005, 0.010, 0.025, 0.05, 0.10, 0.25, and 0.50 μg/ml with the antibody diluent. […] 5. Conjugate Diluent: 50% (v/v) which consists of an aqueous solution containing Fetal Bovine Serum in 0.05 M Tris, 1% (v/v) Proclin-300, pH 7.6. [0159] 6. Conjugate: Goat anti-rabbit IgG (H+L)-HRP conjugate. [0160] 7. TMB reagent. […] 8. Stop solution (1 N HCI). Method
1. Dispense 100 μL of antibody diluent, diluted rabbit monoclonal human Id3, and mouse/human Id3 hybridoma supernatants into appropriate wells. […] 2. Incubate at room temperature with mechanical shaking at 750 rpm for 90 minutes. [0165] 3. Remove the incubation mixture by flicking plate content into an appropriate waste container followed by rinsing the wells 5 times with distilled water. [0166] 4. Strike the wells sharply onto absorbent paper or paper towels to remove all residual water droplets. [0167] 5. Dispense 100 μL of 1:50,000 Goat Anti-Rabbit IgG-HRP Conjugate Reagent into each well. Gently mix for 5 seconds. [0168] 6. Incubate at room temperature with mechanical shaking at 750 rpm for 90 minutes. [0169] 7. Repeat procedures 3 and 4. [0170] 8. Dispense 100 μL of TMB Reagent into each well. Gently mix for 5 seconds. [0171] 9. Incubate at room temperature with mechanical shaking at 750 rpm for 20 minutes. […] 10.

[2] = molecular target: T2, glutathione S-transferase (GST) (UniProt P08515 1-218 = GST); assay: ELISA, Ab 0.010 µg/ml
T2 construct: also called carrier protein GST

Mouse Id1: Histidine [3] = molecular target: T1, Mouse Id1: Histidine; assay: ELISA, Ab 0.050 µg/ml
Human Id2: Histidine [4] = molecular target: T3, Human Id2: Histidine (human, UniProt Q02363 1-134, limits assumed); assay: ELISA, Ab 0.050 µg/ml
T3 construct: Fusion protein made in E. coli from vector pGW07; also called h-Id2: His; not shown: His tag
T3 sequence (looked up): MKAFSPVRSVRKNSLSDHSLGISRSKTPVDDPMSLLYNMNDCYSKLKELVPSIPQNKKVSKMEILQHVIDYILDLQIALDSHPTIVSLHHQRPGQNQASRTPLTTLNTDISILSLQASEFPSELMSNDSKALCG

Human Id1: Histidine [5] = molecular target: T4, Human Id1: Histidine (human, UniProt P41134 1-155, limits assumed); assay: ELISA, Ab 0.050 µg/ml
T4 construct: Fusion protein made in E. coli from vector pGW07; also called h-Id1: his; not shown: His tag
T4 sequence (looked up): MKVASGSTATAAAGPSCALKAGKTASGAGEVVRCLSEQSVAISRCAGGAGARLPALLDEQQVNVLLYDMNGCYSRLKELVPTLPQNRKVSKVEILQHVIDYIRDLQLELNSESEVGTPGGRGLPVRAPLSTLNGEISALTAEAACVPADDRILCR

Mouse Id2: Histidine = molecular target: T5, Mouse Id2: Histidine (mouse, UniProt P41136 1-134, limits assumed); assay: ELISA, Ab 0.050 µg/ml
T5 construct: Fusion protein made in E. coli from vector pGW07; also called m-Id2: His; not shown: His tag
T5 sequence (looked up): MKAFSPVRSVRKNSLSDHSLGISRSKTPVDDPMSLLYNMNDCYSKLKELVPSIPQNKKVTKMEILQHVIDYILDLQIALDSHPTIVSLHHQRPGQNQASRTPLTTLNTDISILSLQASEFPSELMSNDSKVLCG

Human Id3: Histidine = molecular target: T6, Human Id3: Histidine (human, UniProt Q02535 1-119 at identity 1.00)); assay: ELISA, Ab 0.050 µg/ml
T6 construct: Fusion protein made in E. coli from vector pGW07; also called h-Id3: His; Human Id3 (coated wells); not shown: His tag
T6 chain: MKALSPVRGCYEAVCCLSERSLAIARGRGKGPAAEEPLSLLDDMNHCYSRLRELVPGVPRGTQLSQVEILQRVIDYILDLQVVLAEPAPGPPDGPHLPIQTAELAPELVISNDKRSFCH

Mouse Id3: Histidine [6] = molecular target: T7, Mouse Id3: Histidine (mouse, UniProt P41133 1-119); assay: ELISA, Ab 0.050 µg/ml
T7 construct: Fusion protein made in E. coli from vector pGW07; also called m-Id3: His; Mouse Id3 (coated wells); not shown: His tag
T7 sequence: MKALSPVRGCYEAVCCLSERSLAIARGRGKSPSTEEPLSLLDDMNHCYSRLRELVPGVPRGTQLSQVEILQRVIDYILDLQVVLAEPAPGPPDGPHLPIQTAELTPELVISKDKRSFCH

Human Id2: Histidine [7] = molecular target: T3, Human Id2: Histidine; assay: ELISA, Ab 0.010 µg/ml
Human Id1: Histidine [8] = molecular target: T4, Human Id1: Histidine; assay: ELISA, Ab 0.010 µg/ml
Mouse Id3: Histidine [9] = molecular target: T7, Mouse Id3: Histidine; assay: ELISA, Ab 0.010 µg/ml

T2 sequence (P08515 whole entry): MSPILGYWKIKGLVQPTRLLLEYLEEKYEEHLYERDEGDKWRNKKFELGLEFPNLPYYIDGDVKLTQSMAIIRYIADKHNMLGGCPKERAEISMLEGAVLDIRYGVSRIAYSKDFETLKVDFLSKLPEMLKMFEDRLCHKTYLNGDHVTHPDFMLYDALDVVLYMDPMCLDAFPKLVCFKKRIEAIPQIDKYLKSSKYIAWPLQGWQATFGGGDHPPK

B1: rabbit monoclonal anti-mouse/human Id3, clone #BCH-4/#16-1 (antibody, V domains shown)
VH: QSVEESGGRLVTPGTPLTLTCTASGFSLSSYYIHWVRQAPGKALEWIGYISDGGTTYYASWAKGRFTISKTSSTTVDLKMTSLTTEDTATYFCARQGFNIWGPGTLVTVSL
VL: AVLTQTPSPVSAAVGGTVTISCQSSQSVYNNNWLSWFQQKSGQPPKLLIYETSKLESGVPSRFKGSGSGTQFTLTIIDVQCDDAATYYCLGGYWTTSDNNIFGGGTEVVVK
notes: Rabbit IgG from a rabbit hybridoma; also called m/h Id3 MoAb 16-1
Question: How did the A450 (Mouse Id1: Histidine [1]) turn out when B1 was run?
Answer: 0.047 A450

Question: What about the A450 [2] of the same binder?
Answer: 0.046 A450

B2: rabbit monoclonal anti-mouse/human Id3, clone #BCH-4/#17-3 (antibody, V domains shown)
VH: QSVEESGGRLVTPGTPLTLTCTASGFSLSNVYIHWVRQAPGKGLEWIGYISDGDTARYATWAKGRFTISKTSSTTVNLKMTSLTTEDTATYFCARQGFNIWGPGTLVTVSL
VL: AVLTQTPSPVSAAVGGTVSISCQSSQSVWNNNWLSWFQQKPGQPPKLLIYETSKLESGVPSRFKGSGSGTQFTLTISDVQCDDAATYYCLGGYWTTSDNNVFGGGTEVVVK
notes: Rabbit IgG from a rabbit hybridoma; also called m/h Id3 MoAb 17-3; BCH-3/#17-3
Question: How did the A450 (Mouse Id1: Histidine [1]) turn out when B2 was run?
Answer: 0.06 A450

Question: And the A450 [2]?
Answer: 0.046 A450

B3: rabbit monoclonal anti-mouse/human Id3, clone #BCH-4/#6-1 (antibody, V domains shown)
VH: QSVEESGGRLVTPGTPLTLTCTASGFSLSNVYIHWVRQAPGKGLEWIGYISDGDTARYATWAKGRFTISKTSSTTVNLKMTSLTTEDTATYFCARQGFNIWGPGTLVTVSL
VL: AVLTQTPSPVSAAVGGTVSISCQSSQSVWNNNWLSWFQQKPGQPPKLLIYETSKLESGVPSRFKGSGSGTQFTLTISDVQCDDAATYYCLGGYWTTSDNNVFGGGTEVVVK
notes: Rabbit IgG from a rabbit hybridoma; also called m/h Id3 MoAb 6-1
Question: Which A450 (Mouse Id1: Histidine [1]) does the source give for B3 here?
Answer: 0.051 A450

Question: What about the A450 (Mouse Id1: Histidine [3]) of the same binder?
Answer: 0.093 A450

Question: What about the A450 (Human Id2: Histidine [4]) of the same binder?
Answer: 0.086 A450

Question: And the A450 (Human Id1: Histidine [5])?
Answer: 0.091 A450

Question: And the A450 (Mouse Id2: Histidine)?
Answer: 0.093 A450

Question: And the A450 (Human Id3: Histidine)?
Answer: 1.52 A450

Question: And the A450 (Mouse Id3: Histidine [6])?
Answer: 1.72 A450

Question: What about the A450 [2] of the same binder?
Answer: 0.046 A450

Question: What about the A450 (Human Id2: Histidine [7]) of the same binder?
Answer: 0.071 A450

Question: What about the A450 (Human Id1: Histidine [8]) of the same binder?
Answer: 0.078 A450

Question: And the A450 (Mouse Id3: Histidine [9])?
Answer: 0.53 A450

B4: rabbit monoclonal anti-mouse/human Id3, clone #BCH-4/#42-1 (antibody, V domains shown)
VH: QSVEESGGRLVTPGTPLTLTCTASGFSLSSYYIHWVRQAPGKALEWIGYISDGGTTYYASWAKGRFTISKTSSTTVDLKMTSLTTEDTATYFCARQGFNIWGPGTLVTVSL
VL: AVLTQTPSPVSAAVGGTVTISCQSSQSVYNNNWLSWFQQKSGQPPKLLIYETSKLESGVPSRFKGSGSGTQFTLTIIDVQCDDAATYYCLGGYWSTSDNNIFGGGTEVVVK
notes: Rabbit IgG from a rabbit hybridoma; also called m/h Id3 MoAb 42-1
Question: What does the source list for B4?
Answer: A450 (Mouse Id1: Histidine [1]): 0.053 A450; A450 [2]: 0.045 A450

B5: rabbit monoclonal anti-human Id3, clone #BCH-4/#3-3 (antibody, V domains shown)
VH: QSVEESGGRLVTPGTPLTLTCTVSGIDLSSYAMSWVRQAPGKGLEWIGVIFPSNNVYYASWAKGRFTISKTSTTVDLKITSPTTEDTATYFCASMGAFDSWGPGTLVTVSS
VL: QVLTQTPSPVSAAVGGTVTINCQASQSIYNDNDLAWFQQKPGQPPKLLIYDASTLTSGVPSRFKGSGSGTQFTLTISDLDCDDAATYYCAARYSGNIYGFGGGTEVVVK
notes: Rabbit IgG from a rabbit hybridoma; also called h Id3 MoAb 3-3
Question: Which A450 (Mouse Id1: Histidine [1]) does the source give for B5 here?
Answer: 0.05 A450

Question: And the A450 [2]?
Answer: 0.045 A450
